Where no end group is shown, it is not given here.
Key:
MAPT(2-34) = target: T1, MAPT(2-34) (human, biotinylated); experiment: ELISA, biotinylated peptide on Neutravidin plate, IgG titrated, A450 nm
T1 construct: also called Tau fragment 2-34
T1 peptide: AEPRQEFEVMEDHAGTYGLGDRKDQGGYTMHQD
Method: (§1) Following a comparison of 37D3-H9 binding to biotinylated Tau monomer and biotinylated peptide (MAPT_10-24), binding of 37D3-H9 to additional biotinylated peptides was also assessed. Nunc maxisorp 96-well microplates were coated at 4° C. for >12 hours with Neutravidin diluted to 2 μg/ml in 50 mM Sodium Carbonate Buffer, pH 9.6. All subsequent incubations were performed at room temperature. After coating, plates were blocked with Superblock™ (PBS) Blocking Buffer (Thermo Fisher Scientific) for two hours then washed thoroughly with PBS, 0.05% Polysorbate 20. Wells were then exposed to biotinylated Tau peptides (Table 20) or Avi-tag biotinylated Tau monomer at 1 μg/ml for one hour and washed as previously. Peptides were synthesized using standard solid-phase Fmoc chemistry (see, e.g., Fmoc solid phase peptide synthesis: A practical approach; Chan, W. C., White, P. D., Eds.; Oxford University Press: New York, 2000). Antibodies 37D3-H9 mIgG2a and hu37D3-H9.v5 hIgG1, serially diluted from 500 nM to 50 pM in 90% Superblock™ (PBS) Blocking Buffer, were allowed to bind biotinylated-Tau coated wells for 90 minutes. Wells were washed as previously and bound antibody detected with peroxidase-conjugated secondary antibody (Invitrogen/Life Technologies) diluted 1/1000 in Superblock™ Blocking Buffer (Rabbit anti-Mouse IgG or Goat Anti-Human IgG (H+L) respectively). After twenty minutes wells were washed as previously and signal developed with TMB Microwell 2-Component Substrate (KPL). Reactions were stopped by addition of 1M Phosphoric Acid and absorbance at 450 nm was measured with a SpectraMax M2 platereader.

MAPT(2-24) = target: T2, MAPT(2-24) (human, biotinylated); experiment: as above
T2 construct: also called Tau fragment 2-24
T2 peptide: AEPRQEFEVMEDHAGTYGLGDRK
Method: as §1

Tau fragment 2-21 L20A = target: T3, Tau fragment 2-21 L20A (human, UniProt P10636-8 2-21); experiment: alanine scanning of Tau fragment 2-21
T3 construct: range 2-21
T3 peptide (looked up): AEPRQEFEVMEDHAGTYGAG

Tau fragment 2-21 Y18A = target: T4, Tau fragment 2-21 Y18A (human, UniProt P10636-8 2-21); experiment: alanine scanning of Tau fragment 2-21
T4 construct: range 2-21
T4 peptide (looked up): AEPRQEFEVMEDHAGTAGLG

[1] = target: T5, recombinant human Tau monomer, 2N4R isoform (amino acids 2-441) (human, UniProt P10636-8 2-441); experiment: SPR single-cycle, Tau monomer amine-coupled, IgG analyte; IgG (bivalent, avidity); Tau monomer on the chip
T5 construct: range 2-441; N-terminal His-tag removed with TEV protease; also called monomeric Tau
Method: (§2) Human monomer Tau protein was covalently coupled to a Biacore Series S CM5 chip using the Biacore Amine Coupling Kit (GE Life Sciences), resulting in immobilization to a level of approximately 128 RU. Direct binding of 37D3-H9 in both Fab and IgG formats was monitored using the single-cycle kinetics experimental format with five association periods of 300s each and antibody concentrations of 1, 2, 4, 8 and 16 nM (IgG) or 5, 10, 20, 40 and 80 nM (Fab). Dissociation was monitored for 7200 seconds (Fab) or for 14400 seconds (IgG). A value for the dissociation rate was calculated by fitting a 1:1 binding model to the data.

[2] = target: T6, full-length human Tau (flTau) (human, UniProt P10636-8 1-441); experiment: SPR, hybridoma Ab on anti-IgG chip, flTau analyte
T6 construct: range 1-441; bought (SignalChem); also called human Tau-441
Procedure, shortened: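 Unpurified antibodies from serum-free hybridoma supernatants were captured on an anti-IgG SPR chip (Biacore T-100), and flTau was flowed as analyte. KD was obtained from kinetic analysis with a 1:1 Langmuir fit.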

[3] = target: T5, recombinant human Tau monomer, 2N4R …; experiment: SPR single-cycle, Tau monomer amine-coupled
Method: as §2

MAPT(10-24) = target: T7, MAPT(10-24) (human, also: biotinylated, site not given here); experiment: ELISA on Tau 15-mer peptides, O.D.; conditions of this panel not given
T7 construct: also called Tau fragment 10-24
T7 peptide: VMEDHAGTYGLGDRK

Tau fragment 37-51 = target: T8, Tau fragment 37-51 (human, UniProt P10636-8 37-51); experiment: as above
T8 construct: range 37-51
T8 peptide (looked up): GDTDAGLKESPLQTP

Tau fragment 28-42 = target: T9, Tau fragment 28-42 (human, UniProt P10636-8 28-42, not fully specified); experiment: as above
T9 construct: range 28-42
T9 peptide (looked up): GYTMHQDQEGDTDAG

Tau fragment 19-33 = target: T10, Tau fragment 19-33 (human, UniProt P10636-8 19-33, not fully specified); experiment: as above
T10 construct: range 19-33
T10 peptide (looked up): GLGDRKDQGGYTMHQ

Tau fragment 1-15 = target: T11, Tau fragment 1-15 (human, UniProt P10636-8 1-15); experiment: as above
T11 construct: range 1-15
T11 peptide (looked up): MAEPRQEFEVMEDHA

Tau fragment 8-22 = target: T12, Tau fragment 8-22 (human, UniProt P10636-8 8-22); experiment: 15mer offset peptides
T12 construct: range 8-22
T12 peptide (looked up): FEVMEDHAGTYGLGD

Tau fragment 9-23 = target: T13, Tau fragment 9-23 (human, UniProt P10636-8 9-23); experiment: 15mer offset peptides
T13 construct: range 9-23
T13 peptide (looked up): EVMEDHAGTYGLGDR

Tau fragment 11-25 = target: T14, Tau fragment 11-25 (human, UniProt P10636-8 11-25, not fully specified); experiment: 15mer offset peptides
T14 construct: range 11-25
T14 peptide (looked up): MEDHAGTYGLGDRKD

Tau fragment 7-21 = target: T15, Tau fragment 7-21 (human, UniProt P10636-8 7-21); experiment: 15mer offset peptides
T15 construct: range 7-21
T15 peptide (looked up): EFEVMEDHAGTYGLG

[4] = target: T5, recombinant human Tau monomer, 2N4R …; experiment: SPR, mIgG2a captured, Tau monomer analyte, 1:1 fit
Procedure, shortened: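 Antibodies in mIgG2a format captured on anti-mouse IgG surface at 1 μg/ml (30 or 45 s) or 0.1 μg/ml (70 or 150 s), 10 μl/min, in HBSP (10 mM HEPES pH7.4, 150 mM NaCl, 0.05% Tween 20). Tau monomer flowed as analyte; association 180-480 s, dissociation 300-600 s, 1:1 fit.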
Target sequence in this assay (P10636 other isoform, or with tags, fused parts or gaps limits assumed): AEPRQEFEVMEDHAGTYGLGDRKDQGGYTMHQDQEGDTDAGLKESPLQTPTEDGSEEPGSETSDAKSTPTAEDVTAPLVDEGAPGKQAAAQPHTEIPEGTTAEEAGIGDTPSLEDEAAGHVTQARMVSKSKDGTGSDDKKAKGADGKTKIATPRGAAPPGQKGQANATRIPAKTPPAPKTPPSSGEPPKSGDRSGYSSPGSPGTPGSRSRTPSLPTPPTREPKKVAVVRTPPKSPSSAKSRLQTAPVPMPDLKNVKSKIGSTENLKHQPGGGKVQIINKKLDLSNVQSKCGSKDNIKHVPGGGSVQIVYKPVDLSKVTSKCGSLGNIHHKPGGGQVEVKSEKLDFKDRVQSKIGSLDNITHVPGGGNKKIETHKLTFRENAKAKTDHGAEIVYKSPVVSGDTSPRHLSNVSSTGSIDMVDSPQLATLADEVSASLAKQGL

T6 sequence (P10636 other isoform, or with tags, fused parts or gaps limits assumed): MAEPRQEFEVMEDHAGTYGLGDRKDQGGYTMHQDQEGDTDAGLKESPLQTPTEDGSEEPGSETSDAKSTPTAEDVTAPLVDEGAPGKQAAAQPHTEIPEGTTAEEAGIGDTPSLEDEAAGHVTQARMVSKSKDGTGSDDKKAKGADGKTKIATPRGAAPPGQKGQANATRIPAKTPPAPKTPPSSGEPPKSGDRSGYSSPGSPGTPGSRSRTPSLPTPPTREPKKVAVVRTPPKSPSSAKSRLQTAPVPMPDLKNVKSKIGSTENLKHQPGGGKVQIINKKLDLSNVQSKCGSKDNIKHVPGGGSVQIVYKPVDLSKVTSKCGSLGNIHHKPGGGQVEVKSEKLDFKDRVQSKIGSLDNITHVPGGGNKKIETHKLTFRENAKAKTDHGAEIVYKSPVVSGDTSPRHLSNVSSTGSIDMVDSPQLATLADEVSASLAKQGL

binding result (MAPT(2-34)): binds
binding result (MAPT(2-24)): binds
binding result (Tau fragment 2-21 L20A): no binding
binding result (Tau fragment 2-21 Y18A): no binding
koff [1]: 1.1e-05 s⁻¹
Kd [2]: 1 nM
fold difference in dissociation rate, Fab against IgG [3]: 45 fold
binding result (MAPT(10-24)): binds
binding result (Tau fragment 37-51): no binding (tested: not given)
binding result (Tau fragment 28-42): no binding (tested: not given)
binding result (Tau fragment 19-33): no binding (tested: not given)
binding result (Tau fragment 1-15): no binding (tested: not given)
binding result (Tau fragment 8-22): binds
binding result (Tau fragment 9-23): binds
binding result (Tau fragment 11-25): binds
binding result (Tau fragment 7-21): binds
Kd [4]: 1.6 nM
koff [4]: 0.0001 s⁻¹
kon [4]: 100000 M⁻¹ s⁻¹
B1: 37D3-H9 (antibody, mouse IgG2a, V domains shown)
VH: EVQLVESGGDLAKPGGSLKLSCTASGLIFRSYGMSWVRQTPDKRLEWVATINSGGTYTYYPDSVKGRFTISRDNAKNTLYLQMSSLKSEDTAMYYCANSYSGAMDYWGQGTSVTVSS
VL: DDLLTQTPLSLPVSLGDPASISCRSSQSIVHSNGNTYFEWYLQKPGQSPKLLIYKVSNRFSGVPDRFSGSGSGTDFTLKISRVEAEDLGVYYCFQGSLVPWTFGGGTKLEIK
notes: also called 37D3-H9 mIgG2a; 37D3-H9 IgG
